This passage reports response (AUC (2G12 normalized)) results from article PMC8610599.

Holding throughout (assay): BLI
On the technique in general: BLI is a label-free optical method that tracks binding on a fibre tip over time.

The target of assay [1] is PGDM1400. The note with it: parent: est. 0.40; read off a plot.
The target of assay [2] is PGT121. The note with it: parent: est. 0.20; read off a plot.
Assay [3] deals with PGT151. The note with it: parent: est. 1.6; read off a plot.
The target of assay [4] is VRC01. The note with it: parent: est. 0.38; read off a plot.

Take LAI SOSIP.664 trimer F53V: the response (AUC (2G12 normalized)) in assay [1] was found to be 0.33; in assay [2], 0.18; in assay [3] it was 1.5; in assay [4], 0.45.
Regarding LAI SOSIP.664 trimer F53V; Q567R, the response (AUC (2G12 normalized)) in assay [1] was found to be 0.35; in assay [2], 0.22; in assay [3] it was 1.5; in assay [4] it was 0.4.
For LAI SOSIP.664 trimer Q567R, in that order: 0.3, 0.22, 1.6 and 0.42.
For LAI SOSIP.664 trimer Q590A, in that order: 0.35, 0.18, 1.5 and 0.62.
For LAI SOSIP.664 trimer Q590A; S164G, in that order: 0.2, 0.17, 1.4 and 0.7.
For LAI SOSIP.664 trimer R585F, the response (AUC (2G12 normalized)) in assay [1] was found to be 0.35; in assay [2], 0.15; in assay [3], 1.5; in assay [4], 0.4.
For LAI SOSIP.664 trimer R585F; Q567R, in that order: 0.35, 0.17, 1.5 and 0.4.
For the substance LAI SOSIP.664 trimer S164G, the response (AUC (2G12 normalized)) stood at 0.25 in assay [1], 0.22 in assay [2], 1.5 in assay [3] and 0.47 in assay [4].
For LAI SOSIP.664 trimer Y586W, in that order: 0.42, 0.18, 1.3 and 0.88.
Taken in the same sequence, the figures for LAI SOSIP.664 trimer Y586W; Q567R were 0.3, 0.2, 1.5 and 0.55.
